According to paper PMC3093366, “A Component of the Xanthomonadaceae Type IV Secretion System Combines a VirB7 Motif with a N0 Domain Found in Outer Membrane Transport Proteins” (PLoS Pathogens, 2011):

Key:
[1] = target: VirB7_(XAC2622_24–139) (Xanthomonas citri subsp. citri strain 306); test: NMR 15N relaxation (rotational correlation time); 15N T1 and T2 of 15N-VirB7_(XAC2622_24–139) at 800 µM, 40°C, 600 MHz
[2] = target: T1, VirB7_(XAC2622_51–134) (Xanthomonas citri subsp. citri strain …, UniProt A0AAI7ZGD2 51-134, 15N isotope labelled in the NMR titration); test: NMR titration; 15N-labeled VirB7_(XAC2622_51–134) (200 µM) titrated with unlabeled VirB7_(XAC2622_38–52) peptide (0 to 740 µM); 15N-HSQC; conditions: both partners purified
T1 construct: also called VirB7_(XAC2622) globular domain; N0 domain; source: E. coli BL21(DE3)RP or BL21(DE3)Star, purified (Q-sepharose, Superdex 75)
T1 sequence: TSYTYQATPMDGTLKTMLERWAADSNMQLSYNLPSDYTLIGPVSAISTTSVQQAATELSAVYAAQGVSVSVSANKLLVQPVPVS

[3] = target: T2, VirB9_(XAC2620_34–255) (Xanthomonas citri subsp. citri strain …, UniProt A0AAI8ESY0 34-255); test: other fluorescence titration; intrinsic fluorescence; 0.1 µM aliquots of VirB7_(XAC2622_24–139_His) added to 1 µM VirB9_(XAC2620_34–255) up to 2.2 µM; 5 mM sodium acetate pH 5.0, 25°C, excitation 280 nm, emission 334–342 nm; conditions: both partners purified
T2 construct: also called full length VirB9; full-length VirB9_(XAC2620) minus the first 33 residues
T2 sequence: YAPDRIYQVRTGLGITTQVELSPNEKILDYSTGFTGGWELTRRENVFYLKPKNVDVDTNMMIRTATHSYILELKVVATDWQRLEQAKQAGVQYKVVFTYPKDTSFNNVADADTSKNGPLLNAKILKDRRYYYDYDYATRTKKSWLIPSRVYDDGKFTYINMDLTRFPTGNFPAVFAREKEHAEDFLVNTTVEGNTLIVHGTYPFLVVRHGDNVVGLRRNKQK

## VirB7_(XAC2622_24–139) (from UniProt A0AAI7ZGD2 24-139) (domain or fragment)
[1]
  stoichiometry N: 2

B1: VirB7_(XAC2622_38–52) (peptide)
peptide: NHFDEAPTEIPLYTS
notes: also called unlabeled peptide encompassing residues 38–52 from the N-terminal region; source: synthetic peptide, bought: EZBiolab
[2]
  binding result: binds

B2: VirB7_(XAC2622_24–139_His) (domain or fragment)
chain: TKPAPDFGGRWKHVNHFDEAPTEIPLYTSYTYQATPMDGTLKTMLERWAADSNMQLSYNLPSDYTLIGPVSAISTTSVQQAATELSAVYAAQGVSVSVSANKLLVQPVPVSSGAKL
notes: Form with the pET28a N-terminal His-tag not removed; used in the fluorescence titration; not shown: His-tag, N-terminal, kept
[3]
  Kd: ~0.04 µM
  stoichiometry N: 1 VirB7:VirB9
